US20030162228A1 (Chugai, published 2003)
Like-named read-outs stand apart in the source and are kept apart here. Where no end group is shown, it is not given here.

How the values were obtained:
[1] = molecular target: T1, TAK1 expressed from yeast 2-hybrid expression vector pBTMHu11F (Homo sapiens (Human), UniProt O43318 1-606); assay: cell-based or functional assay
T1 sequence: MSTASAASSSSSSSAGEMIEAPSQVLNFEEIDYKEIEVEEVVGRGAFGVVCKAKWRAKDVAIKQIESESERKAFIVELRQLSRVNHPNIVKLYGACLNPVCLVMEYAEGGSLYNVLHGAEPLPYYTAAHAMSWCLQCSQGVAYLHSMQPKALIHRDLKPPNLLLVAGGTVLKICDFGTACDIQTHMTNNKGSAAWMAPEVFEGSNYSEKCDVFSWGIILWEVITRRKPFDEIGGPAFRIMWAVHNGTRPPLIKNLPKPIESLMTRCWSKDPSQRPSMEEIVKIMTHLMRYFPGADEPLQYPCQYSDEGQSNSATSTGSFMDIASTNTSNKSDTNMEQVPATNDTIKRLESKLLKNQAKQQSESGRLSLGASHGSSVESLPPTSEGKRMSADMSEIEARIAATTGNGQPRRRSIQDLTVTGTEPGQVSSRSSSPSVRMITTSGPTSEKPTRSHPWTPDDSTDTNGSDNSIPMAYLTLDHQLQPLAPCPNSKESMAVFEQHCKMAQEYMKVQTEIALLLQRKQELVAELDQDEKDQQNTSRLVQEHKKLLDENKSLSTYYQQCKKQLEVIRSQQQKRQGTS

[2] = molecular target: T1, TAK1 expressed from yeast 2-hybrid …; assay: cell-based or functional assay; remark: listed apart in the source
[3] = molecular target: T1, TAK1 expressed from yeast 2-hybrid …; assay: cell-based or functional assay; remark: listed apart in the source
[4] = molecular target: T2, TAB1 polypeptide of human fibroblast-derived HT-1080 cells (endogenous) (human, UniProt Q15750 1-504, limits assumed); assay: cell-based or functional assay
T2 sequence (looked up): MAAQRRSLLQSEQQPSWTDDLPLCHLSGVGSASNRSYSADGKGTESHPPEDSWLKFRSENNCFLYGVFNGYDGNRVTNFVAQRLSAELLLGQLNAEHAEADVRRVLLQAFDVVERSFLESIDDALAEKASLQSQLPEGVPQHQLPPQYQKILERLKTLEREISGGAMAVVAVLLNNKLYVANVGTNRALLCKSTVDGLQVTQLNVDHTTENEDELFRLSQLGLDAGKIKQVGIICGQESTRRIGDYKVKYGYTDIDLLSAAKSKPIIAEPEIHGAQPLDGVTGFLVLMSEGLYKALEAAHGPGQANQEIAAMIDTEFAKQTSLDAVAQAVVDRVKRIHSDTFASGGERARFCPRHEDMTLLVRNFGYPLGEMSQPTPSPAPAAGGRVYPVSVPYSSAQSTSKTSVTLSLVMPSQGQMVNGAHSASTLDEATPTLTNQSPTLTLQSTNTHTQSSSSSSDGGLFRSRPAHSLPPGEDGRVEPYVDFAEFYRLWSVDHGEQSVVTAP

[5] = molecular target: T3, TAB1 polypeptide of mouse kidney mesangial cell line SV40MES13 (endogenous) (mouse, UniProt Q8CF89 1-502, limits assumed); assay: cell-based or functional assay
T3 sequence (looked up): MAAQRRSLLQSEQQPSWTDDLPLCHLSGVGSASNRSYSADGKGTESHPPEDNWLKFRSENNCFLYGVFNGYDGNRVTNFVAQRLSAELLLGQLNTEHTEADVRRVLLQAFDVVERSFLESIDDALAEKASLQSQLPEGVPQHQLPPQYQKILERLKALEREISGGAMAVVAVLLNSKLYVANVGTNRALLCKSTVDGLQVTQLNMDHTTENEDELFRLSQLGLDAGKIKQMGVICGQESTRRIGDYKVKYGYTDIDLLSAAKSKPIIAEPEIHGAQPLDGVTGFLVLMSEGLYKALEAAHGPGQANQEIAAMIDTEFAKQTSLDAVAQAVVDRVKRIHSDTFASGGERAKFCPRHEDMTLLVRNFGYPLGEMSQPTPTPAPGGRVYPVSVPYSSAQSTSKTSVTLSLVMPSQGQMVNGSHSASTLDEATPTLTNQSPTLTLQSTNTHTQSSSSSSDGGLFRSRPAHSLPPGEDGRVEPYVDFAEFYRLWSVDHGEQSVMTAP

[6] = molecular target: TAB1 polypeptide of mink pulmonary epithelial cell line Mv1Lu (endogenous) (mink); assay: cell-based or functional assay
[7] = molecular target: T4, recombinant human TAK1-6×His polypeptide (human, UniProt O43318 1-606); assay: competition ELISA on plate-immobilised TAK1-6×His; the blocked ligand is MBP-TAB1C-FLAG at a fixed amount
T4 construct: also called human TAK1-6xHis; recombinant TAK1 polypeptide
T4 sequence: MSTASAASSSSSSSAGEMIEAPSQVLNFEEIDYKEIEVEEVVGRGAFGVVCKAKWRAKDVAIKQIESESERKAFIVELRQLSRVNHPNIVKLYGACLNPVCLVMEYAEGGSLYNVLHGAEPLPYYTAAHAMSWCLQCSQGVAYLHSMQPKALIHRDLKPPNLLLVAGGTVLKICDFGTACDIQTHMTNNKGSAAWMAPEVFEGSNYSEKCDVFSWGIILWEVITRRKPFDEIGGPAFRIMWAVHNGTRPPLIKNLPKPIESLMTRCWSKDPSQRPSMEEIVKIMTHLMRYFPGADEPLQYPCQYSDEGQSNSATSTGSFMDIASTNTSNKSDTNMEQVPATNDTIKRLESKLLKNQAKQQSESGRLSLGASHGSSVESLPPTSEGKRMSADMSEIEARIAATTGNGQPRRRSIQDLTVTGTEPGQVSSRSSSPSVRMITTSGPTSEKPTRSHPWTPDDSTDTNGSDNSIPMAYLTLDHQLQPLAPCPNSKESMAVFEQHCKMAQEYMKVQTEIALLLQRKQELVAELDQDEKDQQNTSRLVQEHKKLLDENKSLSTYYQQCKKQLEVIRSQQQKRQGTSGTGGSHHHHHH
Excerpt: In a similar manner to that in the above 5-1 (2), the recombinant human TAK1-6×His polypeptide was immobilized and was blocked.

B1: TAB1C25, fusion with the GAL4 transcription activated domain (pGAD-TAB1C25) (other, not shown: large carriers)
chain: PYVDFAEFYRLWSVDHGEQSVVTAP
modifications: also: fusion with GAL4 transcription activation domain
Which “β-galactosidase activity of yeast L40 (yeast 2-hybrid), ratio based on TAB1C68” value [1] does the source give for B1 here?
The value was 0.28 ratio to TAB1C68.

B2: TAB1C45, fusion with the GAL4 transcription activated domain (pGAD-TAB1C45) (other, not shown: large carriers)
chain: GLFRSRPAHSLPPGEDGRVEPYVDFAEFYRLWSVDHGEQSVVTAP
modifications: also: fusion with GAL4 transcription activation domain
B2 was tested. Which “ratio of the β-galactosidase activity to that of TAB1C68 (yeast 2-hybrid)” value [2] did it give?
Its value is 1.19.

And the “ratio of the β-galactosidase activity to that of TAB1C68 (yeast 2-hybrid)” value [3]?
Its value is 1.31.

B3: TAK1-DN (expressed from pTAK1DN) (other)
chain: MELRQLSRVNHPNIVKLYGACLNPVCLVMEYAEGGSLYNVLHGAEPLPYYTAAHAMSWCLQCSQGVAYLHSMQPKALIHRDLKPPNLLLVAGGTVLKICDFGTACDIQTHMTNNKGSAAWMAPEVFEGSNYSEKCDVFSWGIILWEVITRRKPFDEIGGPAFRIMWAVHNGTRPPLIKNLPKPIESLMTRCWSKDPSQRPSMEEIVKIMTHLMRYFPGADEPLQYPCQ
How did the “fold increase of fibronectin in the culture supernatant on TGF-β addition, HT/DN2 cells (control HT/NEO about 6.1 fold)” value [4] turn out when B3 was run?
The value was ~2.6 fold.

And the “fold increase of fibronectin in the culture supernatant on TGF-β addition, HT/DN14 cells (control HT/NEO about 6.1 fold)” value [4]?
Its value is ~3 fold.

What about the “fold increase of fibronectin in the extracellular matrix extract on TGF-β addition, HT/DN2 cells (control HT/NEO about 11.4 fold)” value [4] of the same binder?
Its value is ~3.5 fold.

What about the “fold increase of fibronectin in the extracellular matrix extract on TGF-β addition, HT/DN14 cells (control HT/NEO about 11.4 fold)” value [4] of the same binder?
The value was ~3.6 fold.

And the “fold increase of fibronectin in the culture supernatant on TGF-β addition, MES/DN3 cells (control MES/NEO about 3.3 fold)” value [5]?
The value was ~2.4 fold.

And the “fold increase of fibronectin in the culture supernatant on TGF-β addition, MES/DN6 cells (control MES/NEO about 3.3 fold)” value [5]?
Its value is ~2.3 fold.

And the “fold increase of fibronectin in the extracellular matrix extract on TGF-β addition, MES/DN3 cells (control MES/NEO about 3.8 fold)” value [5]?
The value was ~2.6 fold.

What about the “fold increase of fibronectin in the extracellular matrix extract on TGF-β addition, MES/DN6 cells (control MES/NEO about 3.8 fold)” value [5] of the same binder?
The value was ~2.1 fold.

And the “fold increase of type I collagen in the culture supernatant on TGF-β addition, MES/DN3 cells (control MES/NEO about 3.6 fold)” value [5]?
Its value is ~2 fold.

What about the “fold increase of type I collagen in the culture supernatant on TGF-β addition, MES/DN6 cells (control MES/NEO about 3.6 fold)” value [5] of the same binder?
The value was ~2 fold.

What about the “fold increase of type IV collagen in the culture supernatant on TGF-β addition, MES/DN3 cells (control MES/NEO about 2.0 fold)” value [5] of the same binder?
The value was ~1.5 fold.

And the “fold increase of type IV collagen in the culture supernatant on TGF-β addition, MES/DN6 cells (control MES/NEO about 2.0 fold)” value [5]?
Its value is ~1.4 fold.

What about the “fold increase of PAI-1 in the culture supernatant on TGF-β1 addition, Mv/DN2 cells (control cells about 16-fold)” value [6] of the same binder?
The value was ~4.3 fold.

B4: TAB1C68, fusion with the GAL4 transcription activated domain (pGAD-TAB1) (other, not shown: large carriers)
chain: QSPTLTLQSTNTHTQSSSSSSDGGLFRSRPAHSLPPGEDGRVEPYVDFAEFYRLWSVDHGEQSVVTAP
Which results are given for B4?
ratio of the β-galactosidase activity to that of TAB1C68 (yeast 2-hybrid) [2]: 1; ratio of the β-galactosidase activity to that of TAB1C68 (yeast 2-hybrid) [3]: 1

B5: recombinant human TAB1-FLAG polypeptide (other)
chain: MAAQRRSLLQSEQQPSWTDDLPLCHLSGVGSASNRSYSADGKGTESHPPEDSWLKFRSENNCFLYGVFNGYDGNRVTNFVAQRLSAELLLGQLNAEHAEADVRRVLLQAFDVVERSFLESIDDALAEKASLQSQLPEGVPQHQLPPQYQKILERLKTLEREISGGAMAVVAVLLNNKLYVANVGTNRALLCKSTVDGLQVTQLNVDHTTENEDELFRLSQLGLDAGKIKQVGIICGQESTRRIGDYKVKYGYTDIDLLSAAKSKPIIAEPEIHGAQPLDGVTGFLVLMSEGLYKALEAAHGPGQANQEIAAMIDTEFAKQTSLDAVAQAVVDRVKRIHSDTFASGGERARFCPRHEDMTLLVRNFGYPLGEMSQPTPSPAPAAGGRVYPVSVPYSSAQSTSKTSVTLSLVMPSQGQMVNGAHSASTLDEATPTLTNQSPTLTLQSTNTHTQSSSSSSDGGLFRSRPAHSLPPGEDGRVEPYVDFAEFYRLWSVDHGEQSVVTAPGTGGSDYKDDDDK
notes: Made in Sf9 cells with baculovirus and purified on anti-FLAG M2 gel
For B5, which “IC50 (read off the curve)” value [7] is on record?
Its value is ~1 µg/well.
